Here are results for one molecule from publication PMC8269012.

This experiment concerns the target PwNAC11-cYFP fusion protein (Picea wilsonii).

B1: ABF3 in pSPYNE (BiFC fusion) (natural protein)
chain: MGSRLNFKSFVDGVSEQQPTVGTSLPLTRQNSVFSLTFDEFQNSWGGGIGKDFGSMNMDELLKNIWTAEESHSMMGNNTSYTNISNGNSGNTVINGGGNNIGGLAVGVGGESGGFFTGGSLQRQGSLTLPRTISQKRVDDVWKELMKEDDIGNGVVNGGTSGIPQRQQTLGEMTLEEFLVRAGVVREEPQPVESVTNFNGGFYGFGSNGGLGTASNGFVANQPQDLSGNGVAVRQDLLTAQTQPLQMQQPQMVQQPQMVQQPQQLIQTQERPFPKQTTIAFSNTVDVVNRSQPATQCQEVKPSILGIHNHPMNNNLLQAVDFKTGVTVAAVSPGSQMSPDLTPKSALDASLSPVPYMFGRVRKTGAVLEKVIERRQKRMIKNRESAARSRARKQAYTMELEAEIAQLKELNEELQKKQVEIMEKQKNQLLEPLRQPWGMGCKRQCLRRTLTGPW
For the molecule B1, the dual-luciferase assay in tobacco: activation of the ERD1 promoter reporter on simultaneous expression of PwNAC11 and ABF3, against the control group (PwNAC11 alone 2.67-fold over empty vector) stood at 3.04 fold.
